No end group written: not given here.

Series [1] in a line: Intranasal bioavailability of hydrocodone conjugates in rats. The following applies: relative to hydrocodone.
Series [2] in a line: Oral bioavailability of hydrocodone conjugates in rats. The note with it: for bioavailability (% HC) oral AUC / bioavailability (% HC) oral Cmax: rats, relative to hydrocodone; for Oral:IN Index AUC: ratio of oral to intranasal AUC (% HC); for Oral:IN Index Cmax: ratio of oral to intranasal Cmax (% HC).

Turning to “Asp-Asp-Asp-Asp-Ile-HC (DDDDI-hydrocodone)”, in series [1], the “bioavailability (% HC) IN AUC” value came to 36 % HC and the “bioavailability (% HC) IN Cmax” value stood at 64 % HC. Further, in series [2], the “bioavailability (% HC) oral AUC” value is 79 % HC, the “bioavailability (% HC) oral Cmax” value came out at 110 % HC, the “Oral:IN Index AUC” value came out at 2.19 and the “Oral:IN Index Cmax” value was determined as 1.72.
For “Asp-Asp-Gly-Gly-Ile-HC (DDGGI-hydrocodone)”, in series [1], the “bioavailability (% HC) IN AUC” value stood at 48 % HC and the “bioavailability (% HC) IN Cmax” value stood at 67 % HC. In addition, in series [2], the “bioavailability (% HC) oral AUC” value came out at 82 % HC, the “bioavailability (% HC) oral Cmax” value came out at 80 % HC, the “Oral:IN Index AUC” value was 1.71 and the “Oral:IN Index Cmax” value was 1.19.
Asp-Asp-Ile-HC: in series [1], the “bioavailability (% HC) IN AUC” value was determined as 59 % HC and the “bioavailability (% HC) IN Cmax” value was 93 % HC. Besides, in series [2], the “bioavailability (% HC) oral AUC” value is recorded as 280 % HC, the “bioavailability (% HC) oral Cmax” value was 238 % HC, the “Oral:IN Index AUC” value was found to be 4.75 and the “Oral:IN Index Cmax” value came to 2.56.
For “Asp-Asp-Phe-Phe-Ile-HC (DDFFI-hydrocodone)”, in series [1], the “bioavailability (% HC) IN AUC” value is 56 % HC and the “bioavailability (% HC) IN Cmax” value was determined as 62 % HC. Further, in series [2], the “bioavailability (% HC) oral AUC” value was 115 % HC, the “bioavailability (% HC) oral Cmax” value is 167 % HC, the “Oral:IN Index AUC” value turned out to be 2.05 and the “Oral:IN Index Cmax” value is 2.69.
Regarding “Asp-Asp-Pro-Pro-Ile-HC (DDPPI-hydrocodone)”, in series [1], the “bioavailability (% HC) IN AUC” value is recorded as 45 % HC and the “bioavailability (% HC) IN Cmax” value is listed as 80 % HC. Further, in series [2], the “bioavailability (% HC) oral AUC” value is reported as 92 % HC, the “bioavailability (% HC) oral Cmax” value came to 95 % HC, the “Oral:IN Index AUC” value was 2.04 and the “Oral:IN Index Cmax” value stood at 1.19.
Take “Glu-Glu-Asp-Asp-Ile-HC (EEDDI-hydrocodone)”: in series [1], the “bioavailability (% HC) IN AUC” value is reported as 53 % HC and the “bioavailability (% HC) IN Cmax” value was determined as 81 % HC. For the same substance, in series [2], the “bioavailability (% HC) oral AUC” value was found to be 108 % HC, the “bioavailability (% HC) oral Cmax” value is listed as 129 % HC, the “Oral:IN Index AUC” value came to 2.04 and the “Oral:IN Index Cmax” value was 1.59.
For “Glu-Glu-Gly-Gly-Ile-Hydrocodone (EEGGI-hydrocodone) [Glu-Glu-Gly-Gly-Ile-HC]”, in series [1], the “bioavailability (% HC) IN AUC” value is given as 50 % HC and the “bioavailability (% HC) IN Cmax” value stood at 56 % HC. In series [2], the “bioavailability (% HC) oral AUC” value turned out to be 81 % HC and the “bioavailability (% HC) oral Cmax” value was determined as 77 % HC.
In the case of “Glu-Glu-Gly-Gly-Phe-HC (EEGGF-hydrocodone)”, in series [1], the “bioavailability (% HC) IN AUC” value worked out at 89 % HC and the “bioavailability (% HC) IN Cmax” value is listed as 97 % HC. Besides, in series [2], the “bioavailability (% HC) oral AUC” value came to 110 % HC, the “bioavailability (% HC) oral Cmax” value came out at 112 % HC, the “Oral:IN Index AUC” value came out at 1.24 and the “Oral:IN Index Cmax” value is 1.15.
For Glu-Glu-Ile-HC, in series [1], the “bioavailability (% HC) IN AUC” value was determined as 52 % HC and the “bioavailability (% HC) IN Cmax” value is on record as 59 % HC. Moreover, in series [2], the “bioavailability (% HC) oral AUC” value worked out at 83 % HC, the “bioavailability (% HC) oral Cmax” value stood at 112 % HC, the “Oral:IN Index AUC” value came out at 1.60 and the “Oral:IN Index Cmax” value is 1.90.
On to “Glu-Glu-Phe-Phe-Ile-HC (EEFFI-hydrocodone)”, for which, in series [1], the “bioavailability (% HC) IN AUC” value is listed as 68 % HC and the “bioavailability (% HC) IN Cmax” value is listed as 76 % HC. For the same substance, in series [2], the “bioavailability (% HC) oral AUC” value is 96 % HC, the “bioavailability (% HC) oral Cmax” value worked out at 129 % HC, the “Oral:IN Index AUC” value was 1.41 and the “Oral:IN Index Cmax” value was found to be 1.70.
On to “Glu-Glu-Phe-Phe-Phe-Hydrocodone (EEFFF-hydrocodone) [Glu-Glu-Phe-Phe-Phe-HC]”, for which, in series [1], the “bioavailability (% HC) IN AUC” value is recorded as 27 % HC and the “bioavailability (% HC) IN Cmax” value was found to be 47 % HC. In addition, in series [2], the “bioavailability (% HC) oral AUC” value is 83 % HC, the “bioavailability (% HC) oral Cmax” value is 89 % HC, the “Oral:IN Index AUC” value is given as 3.07 and the “Oral:IN Index Cmax” value is recorded as 1.89.
As for “Gly-Gly-Glu-Glu-Ile-HC (GGEEI-hydrocodone)”, in series [1], the “bioavailability (% HC) IN AUC” value is 66 % HC and the “bioavailability (% HC) IN Cmax” value was found to be 77 % HC. In addition, in series [2], the “bioavailability (% HC) oral AUC” value amounted to 96 % HC, the “bioavailability (% HC) oral Cmax” value was found to be 119 % HC, the “Oral:IN Index AUC” value was 1.45 and the “Oral:IN Index Cmax” value is reported as 1.55.
Take “Gly-Gly-Pro-Pro-Ile-HC (GGPPI-hydrocodone)”: in series [1], the “bioavailability (% HC) IN AUC” value was found to be 44 % HC and the “bioavailability (% HC) IN Cmax” value amounted to 56 % HC. Further, in series [2], the “bioavailability (% HC) oral AUC” value is recorded as 94 % HC, the “bioavailability (% HC) oral Cmax” value was 121 % HC, the “Oral:IN Index AUC” value stood at 2.14 and the “Oral:IN Index Cmax” value is reported as 2.16.
Consider Leu-Pro-Phe-HC, for which, in series [1], the “bioavailability (% HC) IN AUC” value was 83 % HC and the “bioavailability (% HC) IN Cmax” value was 101 % HC. Also, in series [2], the “bioavailability (% HC) oral AUC” value was determined as 106 % HC, the “bioavailability (% HC) oral Cmax” value amounted to 125 % HC, the “Oral:IN Index AUC” value is 1.28 and the “Oral:IN Index Cmax” value was found to be 1.24.
“Lys-Lys-Asp-Asp-Ile-HC (KKDDI-hydrocodone)”: in series [1], the “bioavailability (% HC) IN AUC” value came out at 39 % HC and the “bioavailability (% HC) IN Cmax” value is listed as 56 % HC. Also, in series [2], the “bioavailability (% HC) oral AUC” value is listed as 90 % HC, the “bioavailability (% HC) oral Cmax” value stood at 121 % HC, the “Oral:IN Index AUC” value is 2.31 and the “Oral:IN Index Cmax” value is recorded as 2.16.
Turning to Lys-Lys-Ile-HC, in series [1], the “bioavailability (% HC) IN AUC” value is 68 % HC and the “bioavailability (% HC) IN Cmax” value is 94 % HC. Also, in series [2], the “bioavailability (% HC) oral AUC” value was 80 % HC, the “bioavailability (% HC) oral Cmax” value is 76 % HC, the “Oral:IN Index AUC” value amounted to 1.18 and the “Oral:IN Index Cmax” value is given as 0.81.
For “Lys-Lys-Pro-Pro-Ile-HC (KKPPI-hydrocodone)”, in series [1], the “bioavailability (% HC) IN AUC” value came to 68 % HC and the “bioavailability (% HC) IN Cmax” value is on record as 94 % HC. Further, in series [2], the “bioavailability (% HC) oral AUC” value is 80 % HC, the “bioavailability (% HC) oral Cmax” value was 76 % HC, the “Oral:IN Index AUC” value stood at 1.18 and the “Oral:IN Index Cmax” value is reported as 0.81.
Turning to Pro-Ile-Ile-HC, in series [1], the “bioavailability (% HC) IN AUC” value was found to be 86 % HC and the “bioavailability (% HC) IN Cmax” value was determined as 102 % HC. In series [2], the “bioavailability (% HC) oral AUC” value is on record as 104 % HC, the “bioavailability (% HC) oral Cmax” value came out at 99 % HC, the “Oral:IN Index AUC” value is recorded as 1.21 and the “Oral:IN Index Cmax” value is recorded as 0.97.
Consider Pro-Leu-Ile-HC, for which, in series [1], the “bioavailability (% HC) IN AUC” value came out at 87 % HC and the “bioavailability (% HC) IN Cmax” value worked out at 101 % HC. Moreover, in series [2], the “bioavailability (% HC) oral AUC” value was 141 % HC, the “bioavailability (% HC) oral Cmax” value was found to be 172 % HC, the “Oral:IN Index AUC” value was 1.62 and the “Oral:IN Index Cmax” value amounted to 1.70.
As for Pro-Pro-Leu-HC, in series [1], the “bioavailability (% HC) IN AUC” value was determined as 46 % HC and the “bioavailability (% HC) IN Cmax” value is given as 48 % HC. Besides, in series [2], the “bioavailability (% HC) oral AUC” value is given as 94 % HC, the “bioavailability (% HC) oral Cmax” value amounted to 108 % HC, the “Oral:IN Index AUC” value came out at 2.04 and the “Oral:IN Index Cmax” value was 2.25.
On to Tyr-Tyr-Ile-HC, for which, in series [1], the “bioavailability (% HC) IN AUC” value is on record as 20 % HC and the “bioavailability (% HC) IN Cmax” value came out at 34 % HC. In series [2], the “bioavailability (% HC) oral AUC” value is listed as 145 % HC, the “bioavailability (% HC) oral Cmax” value stood at 234 % HC, the “Oral:IN Index AUC” value is reported as 7.25 and the “Oral:IN Index Cmax” value stood at 6.88.
Take Tyr-Tyr-Phe-Phe-Ile-HC: in series [1], the “bioavailability (% HC) IN AUC” value was 26 % HC and the “bioavailability (% HC) IN Cmax” value came to 34 % HC. Also, in series [2], the “bioavailability (% HC) oral AUC” value is recorded as 113 % HC, the “bioavailability (% HC) oral Cmax” value worked out at 63 % HC, the “Oral:IN Index AUC” value came to 4.35 and the “Oral:IN Index Cmax” value amounted to 1.85.
For the substance “Tyr-Tyr-Pro-Pro-Ile-HC (YYPPI-hydrocodone)”, in series [1], the “bioavailability (% HC) IN AUC” value stood at 10 % HC and the “bioavailability (% HC) IN Cmax” value is on record as 10 % HC. Besides, in series [2], the “bioavailability (% HC) oral AUC” value was found to be 218 % HC and the “bioavailability (% HC) oral Cmax” value was 213 % HC.

The record behind these values is patent publication US20080090771A1, “ABUSE-RESISTANT H[…], COMPOSITIONS AND METHODS OF USING THE SAME” (SHIRE LLC, priority 2006, published 2008).
